The supplement of paper PMC10065799, “High-throughput profiling of sequence recognition by tyrosine kinases and SH2 domains using bacterial peptide display” (eLife, 2023)

target: FGFR3 (UniProt P22607); assay: phosphorylation enrichment, bacterial display (enrichment ratio); higher = better substrate or ligand; peptides without Tyr show the background
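Also: 11-residue human phosphosite peptides and single-mutation variants displayed on the E. coli surface, counted by deep sequencing, each peptide's frequency after selection divided by its frequency in the unselected input library; frequency after pTyr selection over input frequency; kinase dosed for 20-30% of maximal phosphorylation in three min.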

Chain of FGFR3 (P22607 whole entry, looked up): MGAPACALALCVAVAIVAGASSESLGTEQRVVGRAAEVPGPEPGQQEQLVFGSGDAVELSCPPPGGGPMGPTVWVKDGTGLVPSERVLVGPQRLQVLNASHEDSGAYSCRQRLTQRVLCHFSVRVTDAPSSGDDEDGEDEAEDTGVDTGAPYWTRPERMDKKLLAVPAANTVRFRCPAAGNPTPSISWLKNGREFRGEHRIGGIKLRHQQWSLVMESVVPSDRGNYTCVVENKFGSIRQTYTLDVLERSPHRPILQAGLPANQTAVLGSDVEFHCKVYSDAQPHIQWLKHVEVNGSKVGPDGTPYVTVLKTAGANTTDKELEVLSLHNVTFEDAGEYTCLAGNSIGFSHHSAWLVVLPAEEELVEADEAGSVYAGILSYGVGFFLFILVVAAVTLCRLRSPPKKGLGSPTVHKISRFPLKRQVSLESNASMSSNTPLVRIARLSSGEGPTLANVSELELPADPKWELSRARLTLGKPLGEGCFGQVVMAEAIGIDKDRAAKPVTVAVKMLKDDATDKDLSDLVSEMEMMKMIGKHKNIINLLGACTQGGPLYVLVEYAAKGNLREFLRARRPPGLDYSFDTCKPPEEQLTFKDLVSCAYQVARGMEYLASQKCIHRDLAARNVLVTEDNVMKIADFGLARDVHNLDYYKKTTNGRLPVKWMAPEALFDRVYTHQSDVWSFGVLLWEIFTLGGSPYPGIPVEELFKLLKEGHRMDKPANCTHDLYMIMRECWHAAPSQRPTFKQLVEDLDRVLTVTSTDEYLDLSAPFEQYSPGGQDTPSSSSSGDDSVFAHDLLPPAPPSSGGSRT

Point of comparison: IIRYNYLLDVL [FGFR4_Y237_S232I], phosphorylation enrichment 0.723. Against it:
- YSSLGYPLPEG [ZSWIM4_Y87_P89L] — higher, 1.06
- FAASSYSFSDL [EMD_Y59_S54F] — lower, 0.663
- TVLWQYTGTRP [UGT1A1_Y337_R336Q] — lower, 0.645
- SHNELYYEEAE [VANGL1_Y344] — higher, 1.15
- KQQEIYQELTQ [CD209_Y239] — higher, 2.3
- DKMEAYNIDET [TEKT4_Y210] — higher, 0.83
- ADYPDCKYRPR [SOX11_Y116_Y116C] — lower, 0.626
- HESEIYGKVCF [CSRP3_Y57_C58G_YF] — higher, 0.939
- RRFVFYFSFLL [PTEN_Y177_YF] — lower, 0.608
- LEQDEYALRSH [HADHB_Y244] — higher, 1.08
- RLLVVYPWTQR [HBB_Y36] — lower, 0.722
- SESSFYKSLNL [NGEF_Y289_A286S_YF] — higher, 0.816
- KSNSDYVDVLP [SH2D1B_Y127_N122K] — higher, 1.68
- SSDKVYAHQMD [MLH1_Y379_V384D] — lower, 0.52
- CSEETYRLMLQ [RET_Y981_M980T] — higher, 1.06
- LMIEEYLTKEP [BAG3_Y457_L462P] — higher, 1.88
- RLLVVFPWTQR [HBB_Y36_Y36F] — higher, 1.08
- PARLEYFENEK [IRS1_Y46_YF] — higher, 0.957
- APQYTYAQGGQ [FLNA_Y1763] — lower, 0.53
- SPRDTYSDRIG [CTPS1_Y567_S571I] — lower, 0.494
- RISRKYKKVRF [F8_Y442_G439S] — higher, 0.749
- VLRQVYVDFEG [KMT2B_Y1707_R1705Q] — higher, 0.871
- DHTVNYVLKCR [PLEKHG4_Y1068_R1064H] — higher, 0.855
- DLDTDYGSGYP [RNASEH2A_Y206] — higher, 0.879
- FSQETYFRVSN [ABCD1_Y180_Q178E_YF] — higher, 1.23
- EQKRFYNAMKK [SCN5A_Y1495_K1493R_YF] — lower, 0.415
- NTGLEYIKFTW [HRH1_Y386_D385E] — higher, 0.851
- LGSWTYPKTVS [ROS1_Y144_T145P] — lower, 0.604
- MAFDRYVAICS [OR8D4_Y123_C120Y_YF] — higher, 0.726
- SDGHEYIYVDP [PDGFRB_Y579] — higher, 5.43
- ERDYTYEELLN [EIF2S2_Y176] — higher, 0.855
- FEEDSYSHVMA [FDPS_Y388_I391V_YF] — higher, 0.901

tested on: Fer (mouse); assay: as above

Point of comparison: LEQDEYALRSH [HADHB_Y244], phosphorylation enrichment 0.669. Against it:
- YSSLGYPLPEG [ZSWIM4_Y87_P89L] — higher, 0.687
- FAASSYSFSDL [EMD_Y59_S54F] — lower, 0.547
- TVLWQYTGTRP [UGT1A1_Y337_R336Q] — lower, 0.419
- SHNELYYEEAE [VANGL1_Y344] — higher, 1.03
- KQQEIYQELTQ [CD209_Y239] — higher, 3.56
- DKMEAYNIDET [TEKT4_Y210] — lower, 0.584
- ADYPDCKYRPR [SOX11_Y116_Y116C] — lower, 0.426
- HESEIYGKVCF [CSRP3_Y57_C58G_YF] — higher, 6.89
- RRFVFYFSFLL [PTEN_Y177_YF] — higher, 0.829
- RLLVVYPWTQR [HBB_Y36] — lower, 0.5
- SESSFYKSLNL [NGEF_Y289_A286S_YF] — lower, 0.562
- KSNSDYVDVLP [SH2D1B_Y127_N122K] — lower, 0.583
- SSDKVYAHQMD [MLH1_Y379_V384D] — lower, 0.395
- CSEETYRLMLQ [RET_Y981_M980T] — higher, 0.703
- LMIEEYLTKEP [BAG3_Y457_L462P] — higher, 0.745
- RLLVVFPWTQR [HBB_Y36_Y36F] — lower, 0.608
- PARLEYFENEK [IRS1_Y46_YF] — lower, 0.661
- IIRYNYLLDVL [FGFR4_Y237_S232I] — lower, 0.507
- APQYTYAQGGQ [FLNA_Y1763] — lower, 0.409
- SPRDTYSDRIG [CTPS1_Y567_S571I] — lower, 0.358
- RISRKYKKVRF [F8_Y442_G439S] — higher, 0.759
- VLRQVYVDFEG [KMT2B_Y1707_R1705Q] — lower, 0.579
- DHTVNYVLKCR [PLEKHG4_Y1068_R1064H] — lower, 0.512
- DLDTDYGSGYP [RNASEH2A_Y206] — higher, 0.682
- FSQETYFRVSN [ABCD1_Y180_Q178E_YF] — lower, 0.45
- EQKRFYNAMKK [SCN5A_Y1495_K1493R_YF] — lower, 0.35
- NTGLEYIKFTW [HRH1_Y386_D385E] — lower, 0.449
- LGSWTYPKTVS [ROS1_Y144_T145P] — lower, 0.453
- MAFDRYVAICS [OR8D4_Y123_C120Y_YF] — lower, 0.563
- SDGHEYIYVDP [PDGFRB_Y579] — higher, 1.66
- ERDYTYEELLN [EIF2S2_Y176] — lower, 0.65
- FEEDSYSHVMA [FDPS_Y388_I391V_YF] — higher, 1.42

target: Fes (UniProt P07332); assay: as above
Sequence (P07332 whole entry, looked up): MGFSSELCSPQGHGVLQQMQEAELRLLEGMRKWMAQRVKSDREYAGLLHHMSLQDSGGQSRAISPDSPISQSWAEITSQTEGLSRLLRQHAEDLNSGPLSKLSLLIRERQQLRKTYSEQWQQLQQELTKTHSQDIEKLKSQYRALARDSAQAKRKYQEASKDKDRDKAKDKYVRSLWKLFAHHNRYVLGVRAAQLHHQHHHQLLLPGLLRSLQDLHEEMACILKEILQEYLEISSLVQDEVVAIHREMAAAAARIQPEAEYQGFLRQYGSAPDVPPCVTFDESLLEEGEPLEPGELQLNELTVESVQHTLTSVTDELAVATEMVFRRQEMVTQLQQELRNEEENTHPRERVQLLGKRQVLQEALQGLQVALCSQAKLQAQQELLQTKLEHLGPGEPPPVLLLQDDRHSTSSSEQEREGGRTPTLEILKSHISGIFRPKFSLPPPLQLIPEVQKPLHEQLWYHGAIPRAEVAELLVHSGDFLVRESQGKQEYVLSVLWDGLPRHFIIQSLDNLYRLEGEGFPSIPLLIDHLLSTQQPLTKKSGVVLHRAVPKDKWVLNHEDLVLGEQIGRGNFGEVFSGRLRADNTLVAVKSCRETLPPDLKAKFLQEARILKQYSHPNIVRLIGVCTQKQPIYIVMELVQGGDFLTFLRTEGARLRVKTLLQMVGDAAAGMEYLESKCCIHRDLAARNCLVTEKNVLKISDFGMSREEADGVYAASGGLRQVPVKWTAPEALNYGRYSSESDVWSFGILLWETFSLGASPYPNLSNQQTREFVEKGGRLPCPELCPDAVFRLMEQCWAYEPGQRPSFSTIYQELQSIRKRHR

Point of comparison: LGSWTYPKTVS [ROS1_Y144_T145P], phosphorylation enrichment 1.12. Against it:
- YSSLGYPLPEG [ZSWIM4_Y87_P89L] — lower, 0.904
- FAASSYSFSDL [EMD_Y59_S54F] — higher, 1.15
- TVLWQYTGTRP [UGT1A1_Y337_R336Q] — lower, 1.04
- SHNELYYEEAE [VANGL1_Y344] — higher, 1.27
- KQQEIYQELTQ [CD209_Y239] — lower, 1.07
- DKMEAYNIDET [TEKT4_Y210] — higher, 1.29
- ADYPDCKYRPR [SOX11_Y116_Y116C] — lower, 0.955
- HESEIYGKVCF [CSRP3_Y57_C58G_YF] — higher, 1.71
- RRFVFYFSFLL [PTEN_Y177_YF] — lower, 0.744
- LEQDEYALRSH [HADHB_Y244] — higher, 1.75
- RLLVVYPWTQR [HBB_Y36] — lower, 1.06
- SESSFYKSLNL [NGEF_Y289_A286S_YF] — higher, 1.25
- KSNSDYVDVLP [SH2D1B_Y127_N122K] — lower, 0.887
- SSDKVYAHQMD [MLH1_Y379_V384D] — lower, 0.708
- CSEETYRLMLQ [RET_Y981_M980T] — higher, 1.29
- LMIEEYLTKEP [BAG3_Y457_L462P] — higher, 2.51
- RLLVVFPWTQR [HBB_Y36_Y36F] — higher, 1.73
- PARLEYFENEK [IRS1_Y46_YF] — higher, 1.61
- IIRYNYLLDVL [FGFR4_Y237_S232I] — higher, 2.41
- APQYTYAQGGQ [FLNA_Y1763] — lower, 0.643
- SPRDTYSDRIG [CTPS1_Y567_S571I] — lower, 0.605
- RISRKYKKVRF [F8_Y442_G439S] — lower, 0.883
- VLRQVYVDFEG [KMT2B_Y1707_R1705Q] — higher, 1.28
- DHTVNYVLKCR [PLEKHG4_Y1068_R1064H] — higher, 1.38
- DLDTDYGSGYP [RNASEH2A_Y206] — higher, 1.47
- FSQETYFRVSN [ABCD1_Y180_Q178E_YF] — lower, 1.1
- EQKRFYNAMKK [SCN5A_Y1495_K1493R_YF] — lower, 0.711
- NTGLEYIKFTW [HRH1_Y386_D385E] — lower, 1.09
- MAFDRYVAICS [OR8D4_Y123_C120Y_YF] — higher, 1.14
- SDGHEYIYVDP [PDGFRB_Y579] — lower, 0.988
- ERDYTYEELLN [EIF2S2_Y176] — higher, 1.28
- FEEDSYSHVMA [FDPS_Y388_I391V_YF] — higher, 1.3

target: Fyn (UniProt P06241); assay: as above
Sequence (P06241 whole entry, looked up): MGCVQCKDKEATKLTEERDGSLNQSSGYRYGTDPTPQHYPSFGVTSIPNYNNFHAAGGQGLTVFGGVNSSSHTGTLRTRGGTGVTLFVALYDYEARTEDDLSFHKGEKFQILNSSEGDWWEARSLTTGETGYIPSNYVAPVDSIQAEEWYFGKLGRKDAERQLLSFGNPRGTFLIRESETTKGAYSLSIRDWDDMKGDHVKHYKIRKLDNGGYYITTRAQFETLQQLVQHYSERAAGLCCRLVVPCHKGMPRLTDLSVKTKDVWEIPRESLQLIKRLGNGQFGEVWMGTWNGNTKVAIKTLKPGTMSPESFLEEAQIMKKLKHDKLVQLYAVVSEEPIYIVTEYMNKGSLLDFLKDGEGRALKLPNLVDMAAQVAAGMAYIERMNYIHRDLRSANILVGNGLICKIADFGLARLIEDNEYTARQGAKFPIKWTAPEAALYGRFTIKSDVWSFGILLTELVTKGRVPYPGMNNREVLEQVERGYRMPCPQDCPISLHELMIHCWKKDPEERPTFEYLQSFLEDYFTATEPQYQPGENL

Point of comparison: LGSWTYPKTVS [ROS1_Y144_T145P], phosphorylation enrichment 0.741. Against it:
- YSSLGYPLPEG [ZSWIM4_Y87_P89L] — higher, 2.63
- FAASSYSFSDL [EMD_Y59_S54F] — lower, 0.558
- TVLWQYTGTRP [UGT1A1_Y337_R336Q] — lower, 0.398
- SHNELYYEEAE [VANGL1_Y344] — lower, 0.544
- KQQEIYQELTQ [CD209_Y239] — higher, 6.33
- DKMEAYNIDET [TEKT4_Y210] — lower, 0.568
- ADYPDCKYRPR [SOX11_Y116_Y116C] — lower, 0.427
- HESEIYGKVCF [CSRP3_Y57_C58G_YF] — higher, 6.51
- RRFVFYFSFLL [PTEN_Y177_YF] — the same, 0.741
- LEQDEYALRSH [HADHB_Y244] — higher, 0.793
- RLLVVYPWTQR [HBB_Y36] — lower, 0.574
- SESSFYKSLNL [NGEF_Y289_A286S_YF] — lower, 0.479
- KSNSDYVDVLP [SH2D1B_Y127_N122K] — lower, 0.419
- SSDKVYAHQMD [MLH1_Y379_V384D] — lower, 0.493
- CSEETYRLMLQ [RET_Y981_M980T] — lower, 0.586
- LMIEEYLTKEP [BAG3_Y457_L462P] — lower, 0.6
- RLLVVFPWTQR [HBB_Y36_Y36F] — lower, 0.545
- PARLEYFENEK [IRS1_Y46_YF] — lower, 0.471
- IIRYNYLLDVL [FGFR4_Y237_S232I] — lower, 0.476
- APQYTYAQGGQ [FLNA_Y1763] — lower, 0.486
- SPRDTYSDRIG [CTPS1_Y567_S571I] — lower, 0.453
- RISRKYKKVRF [F8_Y442_G439S] — lower, 0.721
- VLRQVYVDFEG [KMT2B_Y1707_R1705Q] — higher, 1.85
- DHTVNYVLKCR [PLEKHG4_Y1068_R1064H] — lower, 0.479
- DLDTDYGSGYP [RNASEH2A_Y206] — higher, 0.852
- FSQETYFRVSN [ABCD1_Y180_Q178E_YF] — lower, 0.592
- EQKRFYNAMKK [SCN5A_Y1495_K1493R_YF] — lower, 0.363
- NTGLEYIKFTW [HRH1_Y386_D385E] — lower, 0.531
- MAFDRYVAICS [OR8D4_Y123_C120Y_YF] — lower, 0.515
- SDGHEYIYVDP [PDGFRB_Y579] — higher, 1.07
- ERDYTYEELLN [EIF2S2_Y176] — higher, 0.886
- FEEDSYSHVMA [FDPS_Y388_I391V_YF] — lower, 0.511
